# Experiments:
# Assay in all cases: cell-based or functional assay
# [1] = molecular target: YU2 envelope glycoproteins on recombinant HIV-1 (HIV-1, primary isolate YU2) (UniProt P35961)
# [2] = molecular target: ADA envelope glycoproteins on recombinant HIV-1 (HIV-1, primary isolate ADA)
# [3] = molecular target: HXBc2 envelope glycoproteins on recombinant HIV-1 (HIV-1, TCLA strain HXBc2) (UniProt P04578)
# Chain of UniProt P35961 (P35961 32-843): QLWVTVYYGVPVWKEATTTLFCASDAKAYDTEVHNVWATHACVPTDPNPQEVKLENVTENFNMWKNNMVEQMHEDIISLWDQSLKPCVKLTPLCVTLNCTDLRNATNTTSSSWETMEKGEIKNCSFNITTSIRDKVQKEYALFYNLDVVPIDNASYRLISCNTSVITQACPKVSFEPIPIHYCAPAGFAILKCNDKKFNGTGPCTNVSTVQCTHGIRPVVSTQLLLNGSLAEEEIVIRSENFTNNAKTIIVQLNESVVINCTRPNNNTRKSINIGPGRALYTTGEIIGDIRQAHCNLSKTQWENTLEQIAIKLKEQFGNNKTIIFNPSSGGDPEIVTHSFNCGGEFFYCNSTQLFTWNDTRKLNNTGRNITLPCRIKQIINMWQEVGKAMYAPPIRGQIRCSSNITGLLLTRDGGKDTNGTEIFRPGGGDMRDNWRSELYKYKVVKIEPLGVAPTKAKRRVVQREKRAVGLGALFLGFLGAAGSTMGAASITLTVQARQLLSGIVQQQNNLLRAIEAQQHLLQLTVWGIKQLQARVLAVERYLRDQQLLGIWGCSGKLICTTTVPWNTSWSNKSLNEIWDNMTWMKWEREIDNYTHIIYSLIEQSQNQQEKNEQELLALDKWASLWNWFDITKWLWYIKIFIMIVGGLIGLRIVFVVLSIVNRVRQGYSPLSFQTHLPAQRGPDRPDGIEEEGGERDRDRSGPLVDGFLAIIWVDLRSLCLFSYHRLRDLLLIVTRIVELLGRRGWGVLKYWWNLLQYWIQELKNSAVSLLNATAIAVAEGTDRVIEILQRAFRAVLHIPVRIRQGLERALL
substance,measurement,setting,value
IgG1b12 antibody,"50% neutralization of recombinant virus, single-round luciferase entry assay (:g/ml (so in the source); symbol garbled))",[1],5
same,"90% neutralization of recombinant virus, single-round luciferase entry assay (:g/ml (so in the source); symbol garbled))",[1],> 20
same,"50% neutralization of recombinant virus, single-round luciferase entry assay (:g/ml (so in the source); symbol garbled))",[2],2.5
same,"90% neutralization of recombinant virus, single-round luciferase entry assay (:g/ml (so in the source); symbol garbled))",[2],> 10
same,"90% neutralization of recombinant virus, single-round luciferase entry assay (g/ml (so in the source); symbol garbled))",[3],1.25

# Reference: patent publication US20050106177A1
